Laboratory results reported in publication PMC7575002.

Target: T1, major tail protein gpV of bacteriophage lambda, in free tails (bacteriophage lambda), P03733
T1 chain: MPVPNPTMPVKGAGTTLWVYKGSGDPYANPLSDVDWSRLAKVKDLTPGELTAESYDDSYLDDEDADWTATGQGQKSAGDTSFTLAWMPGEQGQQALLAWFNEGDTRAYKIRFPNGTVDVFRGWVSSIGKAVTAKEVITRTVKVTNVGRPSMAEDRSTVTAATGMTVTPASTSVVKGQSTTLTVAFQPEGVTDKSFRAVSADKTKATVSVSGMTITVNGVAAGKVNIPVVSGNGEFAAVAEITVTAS
Assay: cryo-EM structure
Conditions: remark: other sources report otherwise

B1: major tail protein gpV of bacteriophage lambda, in free tails, P03733 1-246 (natural protein)
chain: T1 chain
Q: B1 was tested. Which stoichiometry N did it give?
A: 6
